From US20220010004A1 (published 2022)

T1: tau peptide 240-270 (human)
T1 construct: Synthetic; Built from 2N4R numbering
T1 peptide: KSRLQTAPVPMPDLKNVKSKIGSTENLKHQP

T2: tau peptide 270-300 (human)
T2 construct: Synthetic; Built from 2N4R numbering
T2 peptide: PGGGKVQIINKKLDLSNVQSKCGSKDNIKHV

T3: tau peptide 301-330 (human)
T3 construct: Synthetic; Built from 2N4R numbering
T3 peptide: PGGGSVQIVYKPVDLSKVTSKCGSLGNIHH

B1: monoclonal antibody DC8E8 (antibody, mouse IgG1, V domains shown)
VH: QVQLQQSGPELVKPGTSVKMPCKASGYIFTDYVISWVKQRTGQGLEWIGEIFPRSGSTYYNEKFKGKATLTADKSSNTAYMQLSSVTSEDSAVYFCARDYYGTSFAMDYWGQGTSVTVSS
VL: DIVMSQSPSSLAVSAGEKVTMSCKSSQSLLNSRTRKNYLAWYQQKPGQSPKLLIYWASTRESGVPDRFTGSGSGTDFTLTISSVQAEDLAVYYCKQSFYLRTFGGGTKLDIK
notes: Mouse IgG1 with kappa light chain, from hybridoma ATCC PTA-11994; also called mAb DC8E8

How the values were obtained:
[1] = biological target: B1; assay: competition ELISA; competitor: coated tauΔ(1-150;392-441)/4R
[2] = biological target: B1; assay: competition ELISA against coated tauΔ(1-150;392-441)/4R
tau peptide 240-270 = biological target: T1, tau peptide 240-270; assay: ELISA, coated peptide (5 µg/ml), hybridoma supernate
Experimental: (§1) Microtiter plates were coated overnight at 37° C. with either recombinant tau proteins or with tau peptides (5 μg/ml in PBS, 50 μl/well). […] Bound monoclonal antibody was detected with sheep anti-mouse Ig HRP-conjugated (DAKO). The reaction was developed with orthophenylenediamine Solution as a peroxidase substrate and stopped with 50 μl of 2 M H₂SO₄. Absorbance was measured at 492 nm using a Multiscan MCC/340 ELISA reader (Labsystems). Readouts with an absorbance value of at least twice the value of the negative controls (PBS) were considered positive.

tau peptide 270-300 = biological target: T2, tau peptide 270-300; assay: as above
Experimental: as §1

tau peptide 301-330 = biological target: T3, tau peptide 301-330; assay: as above
Experimental: as §1

tauΔ222-427 = tauΔ222-427 (human, UniProt P10636 1-758); assay: ELISA, coated tau (5 µg/ml), hybridoma supernate
Experimental: as §1

tauΔ300-312 = tauΔ300-312 (human, UniProt P10636 1-758); assay: ELISA, coated tau (5 µg/ml), hybridoma supernate
Experimental: as §1

tauΔ306-400 = tauΔ306-400 (human, UniProt P10636 1-758); assay: ELISA, coated tau (5 µg/ml), hybridoma supernate
Experimental: as §1

tauΔ228-441 = biological target: T4, tauΔ228-441 (human, UniProt P10636 1-544); assay: ELISA, coated tau (5 µg/ml), hybridoma supernate
T4 construct: also called C-terminally truncated tau protein
Experimental: as §1

tauΔ257-400 = tauΔ257-400 (human, UniProt P10636 1-758); assay: ELISA, coated tau (5 µg/ml), hybridoma supernate
Experimental: as §1

tauΔ137-441 = tauΔ137-441 (human, UniProt P10636 1-387); assay: ELISA, coated tau (5 µg/ml), hybridoma supernate
Experimental: as §1

tauΔ283-441 = tauΔ283-441 (human, UniProt P10636 1-599); assay: ELISA, coated tau (5 µg/ml), hybridoma supernate
Experimental: as §1

tauΔ(1-150; 392-441)/4R = biological target: T5, tauΔ(1-150; 392-441)/4R (human, UniProt P10636 468-708); assay: SPR (Biacore), DC8E8 captured, tau injected
T5 construct: Also the transgene of SHR72 rats; also called tau 151-391/4R; misdisordered tau
Experimental: (§2) A BIACORE3000 instrument with a CMS sensor chip (Biacore AB, Uppsala) was used for the SPR assays. Amine-coupling reagents (EDC, NHS, ethanolamine pH 8.5), P20 detergent, and 10 mM sodium acetate pH 5.0 were obtained from Biacore AB. These experiments were done at 25° C. in PBS pH 7.4 with 0.005% of P20 (PBS-P) as the running buffer.
(§3) Kinetic rate constants were approximated globally, maximal responses were fitted locally, and the bulk response was set to zero.

[3] = biological target: T6, human full-length tau isoform 2N4R (human, UniProt P10636 1-758); assay: SPR (Biacore), DC8E8 captured, tau injected
T6 construct: Recombinant, E. coli; also called tau 2N4R; tau441
T6 sequence (P10636 other isoform, or with tags, fused parts or gaps limits assumed): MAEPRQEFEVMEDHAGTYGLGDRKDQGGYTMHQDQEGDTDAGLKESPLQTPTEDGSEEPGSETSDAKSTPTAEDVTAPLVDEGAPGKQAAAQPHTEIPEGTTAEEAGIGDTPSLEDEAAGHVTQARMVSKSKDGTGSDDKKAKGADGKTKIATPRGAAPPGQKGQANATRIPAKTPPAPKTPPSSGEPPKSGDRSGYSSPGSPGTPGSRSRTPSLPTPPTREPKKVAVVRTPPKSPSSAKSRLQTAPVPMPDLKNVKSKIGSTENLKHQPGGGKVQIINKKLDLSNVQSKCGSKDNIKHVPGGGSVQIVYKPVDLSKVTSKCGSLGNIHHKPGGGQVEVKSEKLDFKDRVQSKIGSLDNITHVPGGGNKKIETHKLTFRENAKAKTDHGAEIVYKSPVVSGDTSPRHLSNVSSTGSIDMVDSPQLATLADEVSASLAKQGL
Experimental: as §2, §3

Sequence of tauΔ257-400 (P10636 other isoform, or with tags, fused parts or gaps mutant): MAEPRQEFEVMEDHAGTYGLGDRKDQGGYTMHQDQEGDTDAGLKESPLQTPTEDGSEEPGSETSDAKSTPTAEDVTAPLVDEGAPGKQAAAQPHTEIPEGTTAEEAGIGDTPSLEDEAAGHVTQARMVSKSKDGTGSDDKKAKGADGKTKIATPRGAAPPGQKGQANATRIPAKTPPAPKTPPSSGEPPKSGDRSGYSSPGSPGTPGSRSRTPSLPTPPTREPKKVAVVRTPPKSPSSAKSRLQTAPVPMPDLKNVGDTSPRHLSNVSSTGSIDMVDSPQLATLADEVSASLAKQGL
Sequence of tauΔ137-441 (P10636 other isoform, or with tags, fused parts or gaps mutant): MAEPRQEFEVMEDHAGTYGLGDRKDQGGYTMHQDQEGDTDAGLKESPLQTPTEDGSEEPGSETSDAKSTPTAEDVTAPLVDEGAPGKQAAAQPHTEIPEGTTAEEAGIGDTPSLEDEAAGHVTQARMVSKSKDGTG
Sequence of tauΔ306-400 (P10636 other isoform, or with tags, fused parts or gaps mutant): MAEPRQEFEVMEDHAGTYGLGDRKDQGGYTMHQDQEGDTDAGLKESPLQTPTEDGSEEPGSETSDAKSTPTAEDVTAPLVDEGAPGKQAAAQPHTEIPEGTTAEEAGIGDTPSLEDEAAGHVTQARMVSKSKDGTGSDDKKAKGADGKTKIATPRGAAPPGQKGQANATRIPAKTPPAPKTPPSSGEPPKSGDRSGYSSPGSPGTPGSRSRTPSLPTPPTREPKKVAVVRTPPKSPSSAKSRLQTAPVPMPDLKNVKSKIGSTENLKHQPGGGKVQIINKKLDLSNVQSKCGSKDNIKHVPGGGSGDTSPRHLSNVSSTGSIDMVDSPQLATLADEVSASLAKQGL
Sequence of tauΔ300-312 (P10636 other isoform, or with tags, fused parts or gaps mutant): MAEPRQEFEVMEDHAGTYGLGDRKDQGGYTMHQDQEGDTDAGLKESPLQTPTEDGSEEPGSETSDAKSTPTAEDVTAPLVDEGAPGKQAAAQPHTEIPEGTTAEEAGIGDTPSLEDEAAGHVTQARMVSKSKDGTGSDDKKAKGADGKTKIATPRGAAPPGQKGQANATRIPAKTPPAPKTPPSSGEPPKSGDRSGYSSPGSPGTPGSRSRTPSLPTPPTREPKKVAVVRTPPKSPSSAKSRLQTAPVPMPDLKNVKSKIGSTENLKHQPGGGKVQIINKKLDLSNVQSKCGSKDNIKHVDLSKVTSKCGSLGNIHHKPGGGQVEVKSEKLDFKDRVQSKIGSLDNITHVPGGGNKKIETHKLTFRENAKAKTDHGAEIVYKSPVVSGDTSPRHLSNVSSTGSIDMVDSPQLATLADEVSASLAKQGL
Sequence of tauΔ222-427 (P10636 other isoform, or with tags, fused parts or gaps mutant): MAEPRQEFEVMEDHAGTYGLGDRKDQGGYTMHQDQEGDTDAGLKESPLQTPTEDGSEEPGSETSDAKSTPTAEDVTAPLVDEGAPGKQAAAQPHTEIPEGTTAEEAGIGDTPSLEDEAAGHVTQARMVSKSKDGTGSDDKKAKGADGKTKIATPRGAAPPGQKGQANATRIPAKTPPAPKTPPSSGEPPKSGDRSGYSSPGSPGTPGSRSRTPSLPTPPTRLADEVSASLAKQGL
Sequence of tauΔ283-441 (P10636 other isoform, or with tags, fused parts or gaps mutant): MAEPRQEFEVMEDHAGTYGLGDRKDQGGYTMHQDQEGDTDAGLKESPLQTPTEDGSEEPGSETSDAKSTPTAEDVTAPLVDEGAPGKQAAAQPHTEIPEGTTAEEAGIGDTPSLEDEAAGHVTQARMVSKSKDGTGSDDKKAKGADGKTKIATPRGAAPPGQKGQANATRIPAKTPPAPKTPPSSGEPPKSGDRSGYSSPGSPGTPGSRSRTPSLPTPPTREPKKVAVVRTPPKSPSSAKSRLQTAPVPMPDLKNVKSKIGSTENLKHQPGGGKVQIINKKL
T4 sequence (P10636 other isoform, or with tags, fused parts or gaps mutant): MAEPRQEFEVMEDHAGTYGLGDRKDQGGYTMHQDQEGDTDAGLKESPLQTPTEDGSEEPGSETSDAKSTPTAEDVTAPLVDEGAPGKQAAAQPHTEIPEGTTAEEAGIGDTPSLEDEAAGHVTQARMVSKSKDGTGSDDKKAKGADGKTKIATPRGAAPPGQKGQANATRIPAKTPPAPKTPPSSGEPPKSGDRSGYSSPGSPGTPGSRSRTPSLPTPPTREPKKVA
T5 sequence (P10636 other isoform, or with tags, fused parts or gaps mutant limits assumed): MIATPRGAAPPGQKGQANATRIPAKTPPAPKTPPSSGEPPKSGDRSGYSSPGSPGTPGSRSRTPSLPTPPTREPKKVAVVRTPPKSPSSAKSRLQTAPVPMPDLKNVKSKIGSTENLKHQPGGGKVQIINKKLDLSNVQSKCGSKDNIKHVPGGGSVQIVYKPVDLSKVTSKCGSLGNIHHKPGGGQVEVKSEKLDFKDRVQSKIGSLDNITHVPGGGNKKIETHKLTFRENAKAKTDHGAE

Binder | binding result [1] | further results
SVFQHLPGGGSC (Designed peptide) [designer therapeutic epitope 2 SVFQHLPGGGSC] | – | affinity for DC8E8 relative to tauΔ(1-150; 392-441)4R [1]: > 10 fold
DNIKAVPGGGS (Alanine mutant (H299A) of tau 295-305) [peptide DNIKAVPGGGS] | – | binding result [2]: no binding (tested: 160 µM)
HQPGG [tau peptide HQPGG] | – | binding result [2]: no binding
HVPGG [tau peptide HVPGG] | – | binding result [2]: no binding
KHVPGGG [tau peptide KHVPGGG] | binds | –
KHQPGGG [tau peptide KHQPGGG] | binds | –
THVPGGG [tau peptide THVPGGG] | binds | –
DNAKHVPGGGS (Alanine mutant of tau 295-305) [peptide DNAKHVPGGGS] | binds | –
KHVPGGGSV [peptide KHVPGGGSV] | binds | –
HQPGGG [tau peptide HQPGGG] | binds | –
HKPGGG [tau peptide HKPGGG] | binds | –
HVPGGG [tau peptide HVPGGG] | binds | –
DAIKHVPGGGS (Alanine mutant of tau 295-305) [peptide DAIKHVPGGGS] | binds | –
ANIKHVPGGGS (Alanine mutant of tau 295-305) [peptide ANIKHVPGGGS] | binds | –
NIKHVPGGGS [peptide NIKHVPGGGS] | binds | –
NIKAVPGGGS (Tau-derived peptide with histidine 299 changed to alanine) [peptide NIKAVPGGGS] | – | binding result [2]: no binding (tested: 40 µM)
IKHVPGGGS [peptide IKHVPGGGS] | binds | –
HHKPGGG [tau peptide HHKPGGG] | binds | –
DNIAHVPGGGS (Alanine mutant of tau 295-305) [peptide DNIAHVPGGGS] | binds | –
ENLKHQPGGGKVQIINKKLDLSNVQSKCGSKDNIKHVPGGGS (also called 42-mer) [tau peptide ENLKHQPGGGKVQIINKKLDLSNVQSKCGSKDNIKHVPGGGS] | binds | –
HVPGGGSVQ [peptide HVPGGGSVQ] | binds | –
DNIKHAPGGGS (Alanine mutant of tau 295-305) [peptide DNIKHAPGGGS] | binds | –
TENLKHQPGGGK [tau peptide TENLKHQPGGGK] | binds | –
B1 | – | binding result (tau peptide 240-270): no binding; binding result (tau peptide 270-300): no binding; binding result (tau peptide 301-330): no binding; binding result (tauΔ222-427): no binding; binding result (tauΔ300-312): no binding; binding result (tauΔ306-400): no binding; binding result (tauΔ228-441): no binding; binding result (tauΔ257-400): no binding; binding result (tauΔ137-441): no binding; binding result (tauΔ283-441): no binding; fold lower kOFF of four-repeat tau species (tauΔ(1-150; 392-441)/4R): 10 fold; fold lower kOFF of four-repeat tau species [3]: 10 fold
DNIKHVPGGGSVQIVYKPV (also called 19-mer) [tau peptide DNIKHVPGGGSVQIVYKPV] | binds | –
QPGGG [tau peptide QPGGG] | – | binding result [2]: no binding
VPGGG [tau peptide VPGGG] | – | binding result [2]: no binding
GWSIHSPGGGSC (Designed peptide) [designer therapeutic epitope 1 GWSIHSPGGGSC] | binds | –
